Assay results reported in PMC9340540, “A heterotypic assembly mechanism regulates CHIP E3 ligase activity” (The EMBO Journal, 2022).
One block for each binder: values may come before it.

Assays:
CHN-1 = CHN-1 (C. elegans); experiment: cell-based or functional assay
[1] = target: T1, M1 linked linear ubiquitin (di-Ub) (UniProt P0CG48 1-76; P0CG48 1-76); experiment: SPR; Biacore S200, 25°C; His-tagged UFD-2 or His-tagged Ufd2p immobilised on NTA chips at 20 μg/ml; single-cycle kinetics with M1 diUb at 0, 100, 200, 500, 1,000 and 2,000 nM; 10 mM HEPES, 150 mM NaCl, 0.05% Tween 20, 0.1% BSA, 50 μM EDTA, pH 8.0; settings: both partners purified
T1 construct: ubiquitin, first (distal) unit of the M1-linked dimer; ubiquitin, second (proximal) unit, joined by its M1 to G76 of the first unit; also called linear di-Ub; M1 diUb conjugates; source: bought: UbiQ (UbiQ-L01)

Sequence of CHN-1 (C. elegans) (main, as listed by the source): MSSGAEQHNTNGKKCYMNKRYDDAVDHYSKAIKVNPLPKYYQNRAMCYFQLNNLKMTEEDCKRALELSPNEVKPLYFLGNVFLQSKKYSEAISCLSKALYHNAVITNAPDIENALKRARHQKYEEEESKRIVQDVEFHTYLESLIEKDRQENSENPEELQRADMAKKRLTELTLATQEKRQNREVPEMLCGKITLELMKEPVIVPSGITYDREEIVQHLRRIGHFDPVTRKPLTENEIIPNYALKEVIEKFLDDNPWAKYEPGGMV

- discharge of Ub-charged UBE2D1 by CHN-1, alone or mixed with UFD-2^P951A (CHN-1): ≥ 2 fold
B1: 6xHis::UFD-2^P951A (enzyme, C. elegans, UniProt Q09349 1-984, looked up)
chain: MIEDEKAGLQPMDISDASVFFFQADVESKDFLTSLFDCEGKSDDRMLRYADAIIDVQNLNFDVSPQCLQSNIAEIITKFVLLSQDGSRRGLSRSFNFIDPDIIAGCREEDAIEFLLINFVRCHHELGKSGTSNCYKKTLESTRKAVFSVFVMIQRGYLESQLRSQHASLVFTKRLLEDTVSNVFLRTLVEYLASTDECDEDAITETFNPIFGILRSGIICQRFEDNKDEIVRQILRVMNLLLSIRLPSNGPRPLSNLLVNREDFLPTPSEKIQGREFGLMSFLGPFFSYGLESSARRPNHRVFVDCEEDARKYDGSVNTEQKLYFQRMDPIRTMLHQLMLPLASDQGSRNKTLRWIATIISTNDIRTRSHYDPSDVLCDHYMTNFLSVMYMFSEKIDLSKIIVDYPFLPSSLINISKETRLKMDESGAVAFASQFADRPDEYHFSTVCFFLTIAAQRLVIPPLMNQISEYSRHLKELKHKINALKEKLNTVSGFERAEVEKKLNYETEHWKLMSRHLLCVKTQAQDPALMASSMDFVDKQMKFILNLLCDNLDLLGDDSQLPTEVSQMFCALPEYFLEDALDFYIFAISNGMKLLMERNADWISRLTVLFTQYHYIKSPFLVSKLVRVLSSIQPPLWFNVVRLRMAQENLLMCMIKFYSDFEDNGDFYEKFNVRGNIQYMLEKMEEDMFYKGKFMDMARECGAEFIRFVNMVINDATWCIDESLSGLKSIHDVEKKMANKVEWDNTDQEIRNQDLGVYEEAKRKVKGWLGTAKSNLKLLLSITVNSPEPFRTPVLGERLAAMLNHNLSQLIGSKASELKVKDPRSYGWEPREFVSLLISIYLKLNMPAFVKYIAYDERTYSPEFFHNAIECMRKNSIVGFSQLESFEHLAEDVKKEYEAKAELEEEYDDVPEEFKDPIMDAIMVDPVKLPSGHVMDRAVIERHLLSTPNNAFNRAPLSHNELSPDSELKAKIQEWICQKRNSKK

- binding result [1]: binds
B2: 6xHis::Ufd2p (enzyme, S. cerevisiae, UniProt P54860 1-961, looked up)
chain: MTAIEDILQITTDPSDTRGYSLLKSEEVPQGSTLGVDFIDTLLLYQLTENEKLDKPFEYLNDCFRRNQQQKRITKNKPNAESLHSTFQEIDRLVIGYGVVALQIENFCMNGAFINYITGIVSNVNSYTDFLSQIIQRAILEGTALDLLNAVFPTLLEYCNKHVSHFDLNESVIYNNVLTIFELFVTFKPIAEIFTKIDGFFADYSCKPQDFERKTILGPILSLSPIEAAVAIRNYGDNLLRSKQQTAMIHESLQAEHKVVIDRLFFIVDKLVRGSLNSRTDMISYFAHIANKNHLRRADHPPFKELSSNGFMSNITLLLVRFSQPFLDISYKKIDKIDANYFNNPSLFIDLSGETRLNSDFKEADAFYDKNRKTADSKPNFISDCFFLTLTYLHYGLGGTLSFEEKMGSEIKALKEEIEKVKKIAANHDVFARFITAQLSKMEKALKTTESLRFALQGFFAHRSLQLEVFDFICGASTFLIRVVDPEHEFPFKQIKLPLIPDQIGVENVDNADFLRAHAPVPFKYYPEFVVEGPVNYSLYISKYQTSPIFRNPRLGSFVEFTTMVLRCPELVSNPHLKGKLVQLLSVGAMPLTDNSPGFMMDIFEHDELVNKNLLYALLDFYVIVEKTGSSSQFYDKFNSRYSISIILEELYYKIPSYKNQLIWQSQNNADFFVRFVARMLNDLTFLLDEGLSNLAEVHNIQNELDNRARGAPPTREEEDKELQTRLASASRQAKSSCGLADKSMKLFEIYSKDIPAAFVTPEIVYRLASMLNYNLESLVGPKCGELKVKDPQSYSFNPKDLLKALTTVYINLSEQSEFISAVAKDERSFNRNLFVRAVDILGRKTGLASPEFIEKLLNFANKAEEQRKADEEEDLEYGDVPDEFLDPLMYTIMKDPVILPASKMNIDRSTIKAHLLSDSTDPFNRMPLKLEDVTPNEELRQKILCFKKQKKEEAKHKASE
notes: Ufd2p, S. cerevisiae; from pET28a-6xHis::Ufd2p; The plasmid is from Liu et al (2017); also called S. cerevisiae Ufd2p; His-tagged Ufd2p; source: bacterial expression system, purified; not shown: 6xHis, N-terminal, kept
